Several values for one entry are separate records, joined by “and”; a condition that tells them apart may be missing. Equal entries are not always repeated.

This is an account of results in publication PMC11330416.

Experiment [1] concerns the target biotinylated human angiotensin-converting enzyme 2 reference material ACE2-1 (human) (UniProt Q9BYF1). In words: SPR; ACE2-1 immobilised by its biotin on streptavidin on a biotin-coated Au chip (250-300 RU), blocked with 10 uM BSA; spike analyte in a twofold series of 12.5-200 nM at 50 uL/min, about 90 s association, 30-45 min dissociation; 10 mM HEPES pH 7-7.4, 150 mM NaCl, 3 mM EDTA, 0.05% Tween-20; 1:1 binding model; averages of two independent experiments.

For experiment [2], the target named is SARS-CoV-2 Omicron BA.4/5 spike protein reference material OMIC-1 (SARS-CoV-2 (Omicron BA.4/BA.5) | human) (UniProt P0DTC2). In words: SEC-MALS; Waters BEH SEC 4.6 x 150 mm column (200 A for ACE2-1, 450 A for OMIC-1), DPBS with 0.02% Tween-20, pH 7.4, 0.4 mL/min; UV at 280 nm, MALS and RI detection; relative amounts of species from SEC-UV.

biotinylated human angiotensin-converting enzyme 2 reference material ACE2-1 (human), sequence (Q9BYF1 20-614): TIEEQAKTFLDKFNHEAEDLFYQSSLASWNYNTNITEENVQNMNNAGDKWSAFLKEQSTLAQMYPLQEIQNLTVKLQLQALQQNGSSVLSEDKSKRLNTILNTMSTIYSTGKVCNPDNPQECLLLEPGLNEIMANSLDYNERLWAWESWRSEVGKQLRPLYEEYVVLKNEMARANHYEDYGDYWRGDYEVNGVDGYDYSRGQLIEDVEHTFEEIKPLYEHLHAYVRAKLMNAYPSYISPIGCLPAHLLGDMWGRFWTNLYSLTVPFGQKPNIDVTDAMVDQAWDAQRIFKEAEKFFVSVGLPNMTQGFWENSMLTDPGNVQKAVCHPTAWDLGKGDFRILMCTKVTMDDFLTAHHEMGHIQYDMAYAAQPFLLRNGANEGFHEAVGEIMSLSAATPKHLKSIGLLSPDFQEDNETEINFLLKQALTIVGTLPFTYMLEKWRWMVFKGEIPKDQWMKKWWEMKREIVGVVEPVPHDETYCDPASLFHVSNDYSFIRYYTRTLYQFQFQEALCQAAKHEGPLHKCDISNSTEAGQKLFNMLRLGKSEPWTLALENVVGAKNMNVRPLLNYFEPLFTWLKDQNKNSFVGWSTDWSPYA

With “SARS-CoV-2 Omicron BA.4/5 spike protein reference material OMIC-1 (from UniProt P0DTC2 14-1213)”, the dissociation constant (Kd) in experiment [1] was 4.4 nM. For the same substance, in experiment [2], the percent in higher molecular weight oligomers (SEC-UV) stood at 14%; the percent in the trimeric form (SEC-UV) was determined as 82%; the stoichiometry N is 3 and 6.
